Measurements from patent US20030084466A1, “System and method for controlling male fertility” (priority 2000, published 2003).

Tested on: Akt
Assay: SCF-induced Akt activation (Akt in vitro kinase assay, histone H2B substrate) in primary bone marrow-derived mast cells
Type: cell-based, mouse

B1: SCF: murine stem cell factor (R & D Systems, Inc.), bivalent ligand of the Kit receptor (protein)
chain: KEICGNPVTDNVKDITKLVANLPNDYMITLNYVAGMDVLPSHCWLRDMVIQLSLSLTTLLDKFSNISEGLSNYSIIDKLGKIVDDLVLCMEENAPKNIKESPKRPETRSFTPEEFFSIFNRSIDAFKDFMVASDTSDCVLSSTLGPEKDSRVSVTKPFMLPPVA
Question: What does the source list for B1?
Answer: Akt activation (+/+ and loxP/loxP mast cells, 100 ng/ml murine SCF, 8 minutes, 37° C.): 5 fold; Akt activation relative to wild type levels (Y719F/Y719F mast cells, SCF stimulation): 12%
